The results in this text go back to the supplement of paper PMC5998384.

For series [1], the system named is HeLa Kyoto. Put plainly: solubility in G1/S (NP-40 vs SDS abundance) (log2 ratio); higher = more soluble. The settings on record: cell cycle stage: G1/S.
Series [2] has as its system HeLa Kyoto. Kind of series: melting temperature (median over replicates), in situ; higher = more thermally stable.
Series [3] concerns HeLa Kyoto. Kind of series: solubility change mitosis vs G1/S (difference of NP-40 vs SDS log2 ratios) (log2 ratio difference); higher = more soluble in mitosis.
Series [4] concerns HeLa Kyoto. Put plainly: thermal stability score vs G1/S (z-score of summed log2 fold changes over temperatures); higher = more thermally stable than in G1/S.
Setting [5] is: cell cycle stage: early G1 (4.5 h after nocodazole release).
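For melting temperature (median over replicates), in situ in this document: HeLa Kyoto cells synchronized by double thymidine or nocodazole block, proteins quantified by TMT10plex mass spectrometry, three independent biological replicates.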
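For solubility change mitosis vs G1/S (difference of NP-40 vs SDS log2 ratios) in this document: synchronized HeLa Kyoto cells (double thymidine block for G1/S, nocodazole release for mitosis), protein amounts in NP-40 versus SDS lysates quantified by mass spectrometry, three biological replicates.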
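For solubility in G1/S (NP-40 vs SDS abundance) in this document: HeLa Kyoto cells arrested at G1/S by double thymidine block, proteins quantified by TMT10plex mass spectrometry in mild NP-40 versus SDS extracts, three biological replicates.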
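For thermal stability score vs G1/S (z-score of summed log2 fold changes over temperatures) in this document: synchronized HeLa Kyoto cells, proteins quantified by TMT10plex mass spectrometry, three biological replicates, mitosis taken 0.5 h after nocodazole release, G1/S directly after double thymidine block.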

For “MSAAIAALAASYGSGSGSESDSDSESSRCPLPAADSLMHLTKSPSSKPSLAVAVDSAPEVAVKEDLETGVHLDPAVKEVQYNPTYETMFAPEFGPENPFRTQQMAAPRNMLSGYAEPAHINDFMFEQQRRTFATYGYALDPSLDNHQVSAKYIGSVEEAEKNQGLTVFETGQKKTEKRKKFKENDASNIDGFLGPWAKYVDEKDVAKPSEEEQKELDEITAKRQKKGKQEEEKPGEEKTILHVKEMYDYQGRSYLHIPQDVGVNLRSTMPPEKCYLPKKQIHVWSGHTKGVSAVRLFPLSGHLLLSCSMDCKIKLWEVYGERRCLRTFIGHSKAVRDICFNTAGTQFLSAAYDRYLKLWDTETGQCISRFTNRKVPYCVKFNPDEDKQNLFVAGMSDKKIVQWDIRSGEIVQEYDRHLGAVNTIVFVDENRRFVSTSDDKSLRVWEWDIPVDFKYIAEPSMHSMPAVTLSPNGKWLACQSMDNQILIFGAQNRFRLNKKKIFKGHMVAGYACQVDFSPDMSYVISGDGNGKLNIWDWKTTKLYSRFKAHDKVCIGAVWHPHETSKVITCGWDGLIKLWD [CDC40]”, the “solubility in G1/S (log2)” value in series [1] was -0.918. The melting temperature in series [2] (cell cycle stage: G1/S) was 53.1 °C; in series [2] (cell cycle stage: mitosis), 51.9 °C. In addition, the “solubility change mitosis (log2)” value in series [3] stood at 0.525. Besides, the values for the thermal stability score in series [4] (setting [5]) and in series [4] (cell cycle stage: mitosis) were -1 and -0.655, respectively.

As to “MSAEVETSEGVDESEKKNSGALEKENQMRMADLSELLKEGTKEAHDRAENTQFVKDFLKGNIKKELFKLATTALYFTYSALEEEMERNKDHPAFAPLYFPMELHRKEALTKDMEYFFGENWEEQVQCPKAAQKYVERIHYIGQNEPELLVAHAYTRYMGDLSGGQVLKKVAQRALKLPSTGEGTQFYLFENVDNAQQFKQLYRARMNALDLNMKTKERIVEEANKAFEYNMQIFNELDQAGSTLARETLEDGFPVHDGKGDMRKCPFYAAEQDKGALEGSSCPFRTAMAVLRKPSLQFILAAGVALAAGLLAWYYM [HMOX2]”, the “solubility in G1/S (log2)” value in series [1] was 0.427. Also, the melting temperature came out at 49.4 °C in series [2] (cell cycle stage: G1/S) and 51 °C in series [2] (cell cycle stage: mitosis). Besides, in series [3], the “solubility change mitosis (log2)” value was 0.0224. The figures for the thermal stability score in series [4] (setting [5]) and in series [4] (cell cycle stage: mitosis) were 0.884 and 1.97, respectively.

Regarding “MSAHNRGTELDLSWISKIQVNHPAVLRRAEQIQARRTVKKEWQAAWLLKAVTFIDLTTLSGDDTSSNIQRLCYKAKYPIREDLLKALNMHDKGITTAAVCVYPARVCDAVKALKAAGCNIPVASVAAGFPAGQTHLKTRLEEIRLAVEDGATEIDVVINRSLVLTGQWEALYDEIRQFRKACGEAHLKTILATGELGTLTNVYKASMIAMMAGSDFIKTSTGKETVNATFPVAIVMLRAIRDFFWKTGNKIGFKPAGGIRSAKDSLAWLSLVKEELGDEWLKPELFRIGASTLLSDIERQIYHHVTGRYAAYHDLPMS [DERA]”, the “solubility in G1/S (log2)” value in series [1] was -0.131. Further, the melting temperature in series [2] (cell cycle stage: G1/S) and in series [2] (cell cycle stage: mitosis) was 56.1 °C each time. The “solubility change mitosis (log2)” value in series [3] was -0.0424. In addition, the thermal stability score in series [4] (setting [5]) is -3.39; in series [4] (cell cycle stage: mitosis), -3.58.

For “MSAPFEERSGVVPCGTPWGQWYQTLEEVFIEVQVPPGTRAQDIQCGLQSRHVALSVGGREILKGKLFDSTIADEGTWTLEDRKMVRIVLTKTKRDAANCWTSLLESEYAADPWVQDQMQRKLTLERFQKENPGFDFSGAEISGNYTKGGPDFSNLEK [NUDCD2]”, the “solubility in G1/S (log2)” value in series [1] came out at 0.372. Moreover, the melting temperature in series [2] (cell cycle stage: G1/S) came out at 47.7 °C; in series [2] (cell cycle stage: mitosis) it was 49.5 °C. Further, in series [3], the “solubility change mitosis (log2)” value came to 0.035. Moreover, the thermal stability score came to 1.01 in series [4] (setting [5]) and 2.41 in series [4] (cell cycle stage: mitosis).

On to “MSAPLDAALHALQEEQARLKMRLWDLQQLRKELGDSPKDKVPFSVPKIPLVFRGHTQQDPEVPKSLVSNLRIHCPLLAGSALITFDDPKVAEQVLQQKEHTINMEECRLRVQVQPLELPMVTTIQMSSQLSGRRVLVTGFPASLRLSEEELLDKLEIFFGKTRNGGGDVDVRELLPGSVMLGFARDGVAQRLCQIGQFTVPLGGQQVPLRVSPYVNGEIQKAEIRSQPVPRSVLVLNIPDILDGPELHDVLEIHFQKPTRGGGEVEALTVVPQGQQGLAVFTSESG [IFI35]”, for which the “solubility in G1/S (log2)” value in series [1] was found to be 0.654. For the same sequence, the figures for the melting temperature in series [2] (cell cycle stage: G1/S) and in series [2] (cell cycle stage: mitosis) were 54.6 °C and 55.2 °C, respectively. For the same sequence, in series [3], the “solubility change mitosis (log2)” value is -0.0643. In addition, the thermal stability score in series [4] (setting [5]) was -1.43; in series [4] (cell cycle stage: mitosis), -2.41.

Take “MSASAVYVLDLKGKVLICRNYRGDVDMSEVEHFMPILMEKEEEGMLSPILAHGGVRFMWIKHNNLYLVATSKKNACVSLVFSFLYKVVQVFSEYFKELEEESIRDNFVIIYELLDELMDFGYPQTTDSKILQEYITQEGHKLETGAPRPPATVTNAVSWRSEGIKYRKNEVFLDVIESVNLLVSANGNVLRSEIVGSIKMRVFLSGMPELRLGLNDKVLFDNTGRGKSKSVELEDVKFHQCVRLSRFENDRTISFIPPDGEFELMSYRLNTHVKPLIWIESVIEKHSHSRIEYMIKAKSQFKRRSTANNVEIHIPVPNDADSPKFKTTVGSVKWVPENSEIVWSIKSFPGGKEYLMRAHFGLPSVEAEDKEGKPPISVKFEIPYFTTSGIQVRYLKIIEKSGYQALPWVRYITQNGDYQLRTQ [AP1M1]”: in series [1], the “solubility in G1/S (log2)” value was -0.0655. Also, the results for the melting temperature in series [2] (cell cycle stage: G1/S) and in series [2] (cell cycle stage: mitosis) were 50.8 °C and 50.6 °C, respectively. The “solubility change mitosis (log2)” value in series [3] is -0.209. Moreover, the thermal stability score in series [4] (setting [5]) was -0.363; in series [4] (cell cycle stage: mitosis), -0.744.

Regarding “MSASGVLSFTQQGWEQVLAKVKRAVVYLDAACAESLHWGCGSTRLLEAVGGPDCHLREFEPDAIGGGAKQPKAVFVLSCLLKGRTVEILRDIICRSHFQYCVVVTTVSHAVHLTANHVPAAAAAEMEGQQPVFEQLEEKLCEWMGNMNYTAEVFHVPLLLAPVAPHFALTPAFASLFPLLPQDVHLLNSARPDKRKLGSLGDVDSTTLTPELLLQIRCLVSGLSSLCEHLGVREECFAVGSLSQVIAADLANYAPAKNRKKTAAGRASVVFVDRTLDLTGAVGHHGDNLVEKIISALPQLPGHTNDVMVNMIALTALHTEEENYNVVAPGCLSQSSDTTAKALWEALLNTKHKEAVMEVRRHLVEAASRENLPIKMSMGRVTPGQLMSYIQLFKNNLKALMNHCGLLQLGLATAQTLKHPQTAKWDNFLAFERLLLQSIGESAMSVVLNQLLPMIKPVTQRTNEDYSPEELLILLIYIYSVTGELTVDKDLCEAEEKVKKALAQVFCEESGLSPLLQKITDWDSSINLTFHKSKIAVDELFTSLRDIAGARSLLKQFKSVYVPGNHTHQASYKPLLKQVVEEIFHPERPDSVDIEHMSSGLTDLLKTGFSMFMKVSRPHPSDYPLLILFVVGGVTVSEVKMVKDLVASLKPGTQVIVLSTRLLKPLNIPELLFATDRLHPDLGF [SCFD2]”, the “solubility in G1/S (log2)” value in series [1] is -0.12. In addition, the melting temperature in series [2] (cell cycle stage: G1/S) came to 49.8 °C; in series [2] (cell cycle stage: mitosis) it was 49.9 °C. The “solubility change mitosis (log2)” value in series [3] was -0.0249. The thermal stability score in series [4] (setting [5]) was -0.157; in series [4] (cell cycle stage: mitosis) it was 0.192.
